# Data published in PMC9458440, “Cryo-EM structure of the Smc5/6 holo-complex” (Nucleic Acids Research, 2022).
# T1: Smc6 (Walker B mutant E1048Q), subunit of the S. cerevisiae Smc5/6 holo-complex (S. cerevisiae, UniProt Q12749 1-1114, E1048Q)
# T1 construct: Smc6, Saccharomyces cerevisiae; the model holds amino acids 74-213, 215-290, 292-370, 387-431, 436-805, 814-919, 922-1104; The complex was crosslinked with BS3; also called ν-SMC; source: recombinant, expressed in insect cells, purified as holo-complex (Superose 6 SEC), BS3-crosslinked
# T1 sequence: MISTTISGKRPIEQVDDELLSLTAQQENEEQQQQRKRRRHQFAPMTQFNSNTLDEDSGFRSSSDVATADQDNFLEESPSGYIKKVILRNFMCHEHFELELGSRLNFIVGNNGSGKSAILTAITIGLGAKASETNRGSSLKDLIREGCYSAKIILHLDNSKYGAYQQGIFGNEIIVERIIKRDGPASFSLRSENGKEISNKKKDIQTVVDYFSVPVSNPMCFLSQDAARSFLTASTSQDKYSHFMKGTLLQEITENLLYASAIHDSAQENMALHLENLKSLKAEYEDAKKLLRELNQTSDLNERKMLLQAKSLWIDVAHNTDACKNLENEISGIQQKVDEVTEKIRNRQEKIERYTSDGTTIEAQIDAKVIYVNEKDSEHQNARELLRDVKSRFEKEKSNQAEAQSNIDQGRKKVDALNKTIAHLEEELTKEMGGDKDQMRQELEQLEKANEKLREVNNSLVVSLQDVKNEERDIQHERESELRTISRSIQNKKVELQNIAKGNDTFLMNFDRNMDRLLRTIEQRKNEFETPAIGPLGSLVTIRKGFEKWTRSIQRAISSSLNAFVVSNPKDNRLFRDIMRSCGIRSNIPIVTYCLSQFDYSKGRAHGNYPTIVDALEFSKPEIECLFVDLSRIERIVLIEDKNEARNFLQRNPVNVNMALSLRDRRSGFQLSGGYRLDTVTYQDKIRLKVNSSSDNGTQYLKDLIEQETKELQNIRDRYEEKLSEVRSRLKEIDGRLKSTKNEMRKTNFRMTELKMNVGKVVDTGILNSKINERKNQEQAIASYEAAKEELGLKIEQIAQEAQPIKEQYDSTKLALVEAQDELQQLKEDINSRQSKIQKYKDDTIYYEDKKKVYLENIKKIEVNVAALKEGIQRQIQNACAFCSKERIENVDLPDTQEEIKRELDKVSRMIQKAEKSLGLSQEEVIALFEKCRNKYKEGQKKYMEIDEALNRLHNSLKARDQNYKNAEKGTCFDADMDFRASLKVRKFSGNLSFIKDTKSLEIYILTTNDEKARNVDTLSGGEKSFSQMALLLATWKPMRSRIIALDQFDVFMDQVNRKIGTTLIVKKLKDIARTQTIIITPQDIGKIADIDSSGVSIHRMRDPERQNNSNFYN
# B1: Nse4 with HaloTag, kleisin subunit of the S. cerevisiae Smc5/6 holo-complex (natural protein)
# chain: MSSTVISRKRRNSTVTEPDSSGETRKQKKSRSDEKSSSSKDGDPQLEFKVLQGYRDLESEMHKGRAQVTRTGDIGVAMDNLNAVDSLFNKVIGIKNNGLFAHDARAMVSISELAQISVRNLKFDDSRSMVNLENIVNSLKRYMLKEHFKLNNIAENRNDLTLAADEQSAADQQEESDGDIDRTPDDNHTDKATSSFKATSMRHSYLQQFSHYNEFSQFNWFRIGALYNTISKNAPITDHLMGPLSIEKKPRVLTQRRRNNDQVGEKITAEKITQHSLNSTQQETTPEQVKKCFKKLSKKLGPEGSINLFKFIIDPNSFSRSIENLFYTSFLIKEGKLLMEHDEEGLPTIKIKQSISHTDSRSKEIERQRRRAAHQNHIIFQMDMPTWRKLIKKYNITSPFLD
# notes: Nse4, Saccharomyces cerevisiae; the model holds amino acids 40-124, 184-202, 213-245, 283-402; Density of the HaloTag attached to Nse4 was removed by particle subtraction, so the tag was on the protein on the grid; its end is told only for the yeast strain (C-terminal), not for the recombinant protein; source: recombinant, expressed in insect cells, purified as holo-complex (Superose 6 SEC), …
# B2: Nse1, subunit of the S. cerevisiae Smc5/6 holo-complex (natural protein)
# chain: MEVHEEQVSAPVTGDATAKYLLQYILSARGICHENALILALMRLETDASTLNTEWSIQQWVDKLNDYINAINVKLNLLGYKIIRINHGIGRNAVTLKAKQNFESFEDNTAIRAHNNDYAVLQSIVLPESNRFFVYVNLASTEETKLATRFNQNEIEFMKWAIEQFMISGETIVEGPALETSIIVKEVNRILVAATGDSNLAKWRKFSTFTVGSTNLFQFQELTATDIEDLLLRLCELKWFYRTQEGKFGIDLRCIAELEEYLTSMYNLNTCQNCHKLAIQGVRCGNESCREENEETGENSLSQIWHVDCFKHYITHVSKNCDRCGSSLITEGVYVI
# notes: Nse1, Saccharomyces cerevisiae; the model holds amino acids 11-336; also called KITE subunit; source: recombinant, expressed in insect cells, purified as holo-complex (Superose 6 SEC), BS3-crosslinked
# B3: Nse2 (Mms21), subunit of the S. cerevisiae Smc5/6 holo-complex (natural protein)
# chain: MALNDNPIPKSVPLHPKSGKYFHNLHARDLSNIYQQCYKQIDETINQLVDSTSPSTIGIEEQVADITSTYKLLSTYESESNSFDEHIKDLKKNFKQSSDACPQIDLSTWDKYRTGELTAPKLSELYLNMPTPEPATMVNNTDTLKILKVLPYIWNDPTCVIPDLQNPADEDDLQIEGGKIELTCPITCKPYEAPLISRKCNHVFDRDGIQNYLQGYTTRDCPQAACSQVVSMRDFVRDPIMELRCKIAKMKESQEQDKRSSQAIDVL
# notes: Nse2 (Mms21), Saccharomyces cerevisiae; the model holds amino acids 1-267; source: recombinant, expressed in insect cells, purified as holo-complex (Superose 6 SEC), BS3-crosslinked
# B4: Smc5 (Walker B mutant E1015Q), subunit of the S. cerevisiae Smc5/6 holo-complex (natural protein)
# chain: MTSLIDLGRYVERTHHGEDTEPRSKRVKIAKPDLSSFQPGSIIKIRLQDFVTYTLTEFNLSPSLNMIIGPNGSGKSTFVCAVCLGLAGKPEYIGRSKKVEDFIKNGQDVSKIEITLKNSPNVTDIEYIDARDETIKITRIITRSKRRSDYLINDYQVSESVVKTLVAQLNIQLDNLCQFLSQERVEEFARLKSVKLLVETIRSIDASLLDVLDELRELQGNEQSLQKDLDFKKAKIVHLRQESDKLRKSVESLRDFQNKKGEIELHSQLLPYVKVKDHKEKLNIYKEEYERAKANLRAILKDKKPFANTKKTLENQVEELTEKCSLKTDEFLKAKEKINEIFEKLNTIRDEVIKKKNQNEYYRGRTKKLQATIISTKEDFLRSQEILAQTHLPEKSVFEDIDIKRKEIINKEGEIRDLISEIDAKANAINHEMRSIQRQAESKTKSLTTTDKIGILNQDQDLKEVRDAVLMVREHPEMKDKILEPPIMTVSAINAQFAAYLAQCVDYNTSKALTVVDSDSYKLFANPILDKFKVNLRELSSADTTPPVPAETVRDLGFEGYLSDFITGDKRVMKMLCQTSKIHTIPVSRRELTPAQIKKLITPRPNGKILFKRIIHGNRLVDIKQSAYGSKQVFPTDVSIKQTNFYQGSIMSNEQKIRIENEIINLKNEYNDRKSTLDALSNQKSGYRHELSELASKNDDINREAHQLNEIRKKYTMRKSTIETLREKLDQLKREARKDVSQKIKDIDDQIQQLLLKQRHLLSKMASSMKSLKNCQKELISTQILQFEAQNMDVSMNDVIGFFNEREADLKSQYEDKKKFVKEMRDTPEFQSWMREIRSYDQDTKEKLNKVAEKYEEEGNFNLSFVQDVLDKLESEIAMVNHDESAVTILDQVTAELRELEHTVPQQSKDLETIKAKLKEDHAVLEPKLDDIVSKISARFARLFNNVGSAGAVRLEKPKDYAEWKIEIMVKFRDNAPLKKLDSHTQSGGERAVSTVLYMIALQEFTSAPFRVVDQINQGMDSRNERIVHKAMVENACAENTSQYFLITPKLLTGLHYHEKMRIHCVMAGSWIPNPSEDPKMIHFGETSNYSFD
# notes: Smc5, Saccharomyces cerevisiae; the model holds amino acids 35-390, 394-882, 884-1068; The complex was crosslinked with BS3; also called κ-SMC; source: recombinant, expressed in insect cells, purified as holo-complex (Superose 6 SEC), BS3-crosslinked
# Assays:
# Assay in all cases: cryo-EM structure; BS3-crosslinked six-subunit holo-complex, apo / non-liganded; fractions from Superose 6 diluted to 20 mM HEPES.NaOH pH 7.5, 50 mM NaCl, 0.5 mM TCEP, 0.1 mg/ml; maps at 10.8 Å (holo-complex), 8.53 Å (hinge/arm) and 6.5 Å (head-only); pseudo-atomic model built from homology and AlphaFold models
# Details in all cases: both partners purified
# [1] = biological target: B4
# [2] = biological target: T1, Smc6 (Walker B mutant E1048Q), subunit …
# [3] = biological target: B1
binding result [1],binding result [2],binding result [3],Binder
binds,binds,–,B1
binds,–,binds,B2
binds,binds,–,B3
–,binds,–,B4
